Reference: publication PMC2118495
Where two headings read alike, the source gives them in different places.

How the values were obtained:
Test in all cases: native gel or EMSA
[1] = target: human TCRγδ (clonotypic heterodimer of the γδ TCR) (human (endogenous in PBMCs and γδ T cell clones))
[2] = target: mouse TCRγδ (transgenic TCRVγ1.1 and TCRVδ6 chains) (mouse)
[3] = target: mouse TCRγδ (transgenic TCRVγ1.1 and TCRVδ6 chains) (mouse); remark: listed apart in the source

Molecule | stoichiometry N [1] | also measured
mouse CD3ε (from UniProt P22646 22-189) (natural protein) | – | stoichiometry N [2]: 2
human CD3δ (from UniProt P04234 22-171) (natural protein) | 1 | –
human ζ chain of the TCR (ζζ dimer) (from UniProt P20963 22-164) (natural protein) | 2 | –
mouse CD3γ (natural protein) QTNKAKNLVQVDGSRGDGSVLLTCGLTDKTIKWLKDGSIISPLNATKNTWNLGNNAKDPRGTYQCQGAKETSNPLQVYYRMCENCIELNIGTISGFIFAEVISIFFLALGVYLIAGQDGVRQSRASDKQTLLQNEQLYQPLKDREYDQYSHLQGNQLRKK | – | stoichiometry N [3]: 2

Continued, in another order:

stoichiometry N [1] | Molecule | also measured
2 | human CD3ε (from UniProt P07766 23-207) (natural protein) | –
1 | human CD3γ (from UniProt P09693 23-182) (natural protein) | –
